Test results published in PMC9711875.

Biological target: CD177 (UniProt Q8N6Q3)
Test: SPR; Biacore T200; CD177 amine coupled to a CM5 chip (about 770 counts for kinetic measurements); PR3 or AAT as soluble analytes in 10 mM HEPES, 150 mM NaCl, 0.05% Tween20; 30 μL/minute; 25°C

Kd: 20 nM
B1: purified proteinase 3 (enzyme)
chain: IVGGHEAQPHSRPYMASLQMRGNPGSHFCGGTLIHPSFVLTAAHCLRDIPQRLVNVVLGAHNVRTQEPTQQHFSVAQVFLNNYDAENKLNDVLLIQLSSPANLSASVATVQLPQQDQPVPHGTQCLAMGWGRVGAHDPPAQVLQELNVTVVTFFCRPHNICTFVPRRKAGICFGDSGGPLICDGIIQGIDSFVIWGCATRLFPDFFTRVALYVDWIRSTLR
